In assay [1] the target is Neuronal SNARE complex (VAMP2 on nanolipoprotein particles with flipped t-SNAREs Syntaxin-1 and SNAP-25 on tCells) (not stated | rat) (UniProt P63045).
Assay [2] has the same target. The source holds these as a separate data set.
For assay [3] the target is unchanged. The source holds these as a separate data set.

UniProt P63045, sequence (P63045 whole entry, chain 1 of 3): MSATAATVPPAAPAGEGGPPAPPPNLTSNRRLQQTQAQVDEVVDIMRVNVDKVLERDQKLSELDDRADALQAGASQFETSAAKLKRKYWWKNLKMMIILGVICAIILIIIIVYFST
UniProt P63045, sequence (P32851 186-288, chain 2 of 3, further chain): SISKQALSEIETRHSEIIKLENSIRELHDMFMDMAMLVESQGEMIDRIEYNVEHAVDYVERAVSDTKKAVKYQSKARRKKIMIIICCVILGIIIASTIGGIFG
UniProt P63045, sequence (P60881 2-206, chain 3 of 3, further chain): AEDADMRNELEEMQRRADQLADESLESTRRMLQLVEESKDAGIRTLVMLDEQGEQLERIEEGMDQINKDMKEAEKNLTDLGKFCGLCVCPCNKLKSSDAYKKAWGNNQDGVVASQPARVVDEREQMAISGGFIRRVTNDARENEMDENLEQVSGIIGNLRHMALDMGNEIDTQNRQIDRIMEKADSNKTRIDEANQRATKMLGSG

“Full-length Synaptotagmin-1 (pET28a-SUMO-synaptotagmin 1, residues 57-421), reconstituted into nanolipoprotein particles (from UniProt P21707 57-421) (natural protein)” registered a mean single-pore conductance, fusion of NLPs carrying Syt1 and VAMP2 with flipped t-SNARE cells pre-incubated with diC8PI(4,5)P2, compared to SNARE-alone fusion in assay [1] of 3 fold. On to “Synaptotagmin-1 C2AB R398Q, R399Q (from UniProt P21707 96-421) (domain or fragment)”, for which the mean single open-pore conductance, mutant C2AB with VAMP2 NLPs and flipped t-SNARE cells, 100 μM free calcium and exogenous PI(4,5)P2, compared to wild-type C2AB in assay [2] worked out at 3 fold smaller. Regarding “Synaptotagmin-1 soluble C2AB domains (rat Syt1 residues 96-421) (from UniProt P21707 96-421) (domain or fragment)”, the mean single fusion pore conductance, 10 μM soluble C2AB with VAMP2 NLPs and flipped t-SNARE cells, 100 μM calcium and exogenous PI(4,5)P2, compared to no Syt1 in assay [3] is 3 fold.

These data come from paper PMC8294851.
